Earlier results as cited in article PMC10155966.

How the values were obtained:
[1] = molecular target: LC8 (UniProt P63167)
[2] = molecular target: dynein intermediate chain (IC) (Rattus norvegicus) (UniProt Q63100); experiment: ITC
UniProt Q63100, sequence (Q63100 2-643): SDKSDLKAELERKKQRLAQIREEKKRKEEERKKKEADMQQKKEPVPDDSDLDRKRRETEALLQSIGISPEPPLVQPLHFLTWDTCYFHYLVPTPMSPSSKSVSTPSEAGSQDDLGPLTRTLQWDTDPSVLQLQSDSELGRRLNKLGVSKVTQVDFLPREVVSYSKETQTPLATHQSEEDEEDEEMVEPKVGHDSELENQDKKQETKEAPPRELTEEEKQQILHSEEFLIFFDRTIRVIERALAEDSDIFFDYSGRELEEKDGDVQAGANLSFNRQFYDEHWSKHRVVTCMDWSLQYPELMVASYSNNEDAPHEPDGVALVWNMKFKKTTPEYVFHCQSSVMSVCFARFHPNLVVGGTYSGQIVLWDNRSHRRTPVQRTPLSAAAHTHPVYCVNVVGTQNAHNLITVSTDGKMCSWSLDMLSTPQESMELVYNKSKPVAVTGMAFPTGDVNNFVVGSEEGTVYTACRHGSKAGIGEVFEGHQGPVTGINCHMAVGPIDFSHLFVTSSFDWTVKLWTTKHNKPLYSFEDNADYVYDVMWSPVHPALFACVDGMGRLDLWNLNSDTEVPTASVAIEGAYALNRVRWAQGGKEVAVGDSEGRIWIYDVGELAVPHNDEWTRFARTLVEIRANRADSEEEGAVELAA

For LC8 (from UniProt P63167), the Kd [1] is listed as 60 nM.

In the case of NudE (from UniProt Q9ES39), the Kd [2] is listed as 2300 nM.
